B1: WDR41 (parent)
chain: WTMQAYERNFWDPSPQLDTQQEIK

Variants of: B1
Assay: protein stability index of a GFP-peptide fusion (GPS, HEK-293T) (PSI 1-6); higher = more stable
Details: c terminus: a fixed tail appended
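Note: lentivirally expressed fusions sorted by FACS into six bins by GFP to DsRed ratio, PSI derived from sequencing read proportions per bin multiplied by bin number.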

Variant	protein stability index
WTMQAYERNIWDPSPQLDTQQEIK [F10I]	3.58
WTMQAYERNSWDPSPQLDTQQEIK [F10S]	3.95
WTMQAYERNKWDPSPQLDTQQEIK [F10K]	3.72
WTMQAYERNTWDPSPQLDTQQEIK [F10T]	3.89
WTMQAYERNDWDPSPQLDTQQEIK [F10D]	4.7
WTMQAYERNFWDPTPQLDTQQEIK [S14T]	2.89
WTMQAYERNFWDPVPQLDTQQEIK [S14V]	2.58
WTMQAYERNFWDPYPQLDTQQEIK [S14Y]	2.23
WTMQAYERNFWDPHPQLDTQQEIK [S14H]	1.94
WTMQAYERNFWDPEPQLDTQQEIK [S14E]	3.22
WTMQAYERNFWDPWPQLDTQQEIK [S14W]	2.07
WTMQAYERNFWDPLPQLDTQQEIK [S14L]	2.7
WTMQAYERNFWDPQPQLDTQQEIK [S14Q]	2.76
WTMQAYERNFWDPGPQLDTQQEIK [S14G]	3.05
WTMQAYERNFWDPRPQLDTQQEIK [S14R]	2.37
WTMQAYERNFWDPNPQLDTQQEIK [S14N]	2.74
WTMQAYERNFWDPPPQLDTQQEIK [S14P]	3.16
WTMQAYERNFWDPDPQLDTQQEIK [S14D]	3.26
WWMQAYERNFWDPSPQLDTQQEIK [T2W]	2.15
WFMQAYERNFWDPSPQLDTQQEIK [T2F]	1.71
WRMQAYERNFWDPSPQLDTQQEIK [T2R]	2.91
WYMQAYERNFWDPSPQLDTQQEIK [T2Y]	2.16
WPMQAYERNFWDPSPQLDTQQEIK [T2P]	3.82
WMMQAYERNFWDPSPQLDTQQEIK [T2M]	2.14

Variant	protein stability index
WCMQAYERNFWDPSPQLDTQQEIK [T2C]	2.15
WTMQKYERNFWDPSPQLDTQQEIK [A5K]	2.96
WTMQFYERNFWDPSPQLDTQQEIK [A5F]	1.91
WTMQIYERNFWDPSPQLDTQQEIK [A5I]	1.68
WTMQPYERNFWDPSPQLDTQQEIK [A5P]	2.49
WTMQEYERNFWDPSPQLDTQQEIK [A5E]	3.65
WTMQNYERNFWDPSPQLDTQQEIK [A5N]	3.18
WTMQVYERNFWDPSPQLDTQQEIK [A5V]	2.12
WTMQAYERNFWDPSPQLDPQQEIK [T19P]	2.21
WTMQAYERNFWDPSPQLDAQQEIK [T19A]	2.73
WTMQAYERNFWDPSPQLDIQQEIK [T19I]	2
WTMQAYERNFWDPSPQLDSQQEIK [T19S]	2.91
WTMQAYERNFWDPSPQLDWQQEIK [T19W]	2.22
WTMQAYERNFWDPSPQLDLQQEIK [T19L]	2.5
WTMQAYERNFWDPSPQLDYQQEIK [T19Y]	1.62
WTMQAYERNFWDPSPQLDMQQEIK [T19M]	2.35
WTMQAYERNFYDPSPQLDTQQEIK [W11Y]	3.5
WTMQAYERNFNDPSPQLDTQQEIK [W11N]	4.21
WTMQAYERNFKDPSPQLDTQQEIK [W11K]	4.75
WTMQAYERNFCDPSPQLDTQQEIK [W11C]	3.66
WTMQAYERNFGDPSPQLDTQQEIK [W11G]	3.94
WTMQAYERNFLDPSPQLDTQQEIK [W11L]	4.43
WTMQAYERNFWDPSPQCDTQQEIK [L17C]	2.58
WTMQAYERNFWDPSPQRDTQQEIK [L17R]	3.23

Variant	protein stability index
WTMQAYERNFWDPSPQIDTQQEIK [L17I]	2.25
WTMQAYERNFWDPSPQTDTQQEIK [L17T]	2.31
WTMQAYERNFWDPSPQPDTQQEIK [L17P]	2.9
WTMQAYERNFWDPSPQEDTQQEIK [L17E]	2.9
WTMQAYERNFWDPSPQWDTQQEIK [L17W]	2.37
WTMQAYERNFWDPSPQKDTQQEIK [L17K]	2.84
WTMQAYERNFWDPSPNLDTQQEIK [Q16N]	2.2
WTMQAYERNFWDPSPKLDTQQEIK [Q16K]	2.42
WTMQAYERNFWDPSPYLDTQQEIK [Q16Y]	1.68
WTMQAYERNFWDPSPPLDTQQEIK [Q16P]	2.4
WTMQAYERNFWDPSPLLDTQQEIK [Q16L]	2.42
WTMQAYERNFWDPSPFLDTQQEIK [Q16F]	2.5
WTMQAYERNFWDPSPALDTQQEIK [Q16A]	2.24
WTMQAYERNFWDPSPWLDTQQEIK [Q16W]	1.4
WTMQAYERNFWDPSPILDTQQEIK [Q16I]	2.33
WTMQAYERNFWDPSPQLDTQQEIS [K24S]	2.59
WTMQAYERNFWDPSPQLDTQQEIC [K24C]	2.19
WTMQAYERNFWDPSPQLDTQQEIV [K24V]	2.17
WTMQAYERNFWDPSPQLDTQQEIE [K24E]	3.06
WTMQAYERNFWDPSPQLDTQQEIF [K24F]	2.01
WTMQAYERNFWDPSPQLDTQQEIN [K24N]	2.31
WTMQAYERNFWDPSPQLDTQQEIA [K24A]	2.47
WTMQAYERNFWDPSPQLDTQQEIL [K24L]	1.76
WTMQAYERNFWDPSPQLDTQQEIP [K24P]	2.09

Variant	protein stability index
WTMQAYERNFWDPSPQLDTCQEIK [Q20C]	2.75
WTMQAYERNFWDPSPQLDTYQEIK [Q20Y]	2.07
WTMQAYERNFWDPSPQLDTDQEIK [Q20D]	3.42
WTMQAYERNFWDPSPQLDTTQEIK [Q20T]	2.04
WTMQAYERNFWDPSPQLDTGQEIK [Q20G]	2.19
WTMQAYERNFWDPSPQLDTEQEIK [Q20E]	2.35
WTMQAYERNFWDPSPQLDTNQEIK [Q20N]	2.88
WTMQAYERNFWDPSPQLDTVQEIK [Q20V]	2.34
WTMQAYERNFWDPSPQLDTPQEIK [Q20P]	2.06
WTMQAYERNFWDPSPQLDTMQEIK [Q20M]	2.27
HTMQAYERNFWDPSPQLDTQQEIK [W1H]	3.13
RTMQAYERNFWDPSPQLDTQQEIK [W1R]	4.08
VTMQAYERNFWDPSPQLDTQQEIK [W1V]	3.47
QTMQAYERNFWDPSPQLDTQQEIK [W1Q]	4.81
TTMQAYERNFWDPSPQLDTQQEIK [W1T]	4.25
NTMQAYERNFWDPSPQLDTQQEIK [W1N]	4.46
ETMQAYERNFWDPSPQLDTQQEIK [W1E]	4.41
WTMQAQERNFWDPSPQLDTQQEIK [Y6Q]	2.83
WTMQAKERNFWDPSPQLDTQQEIK [Y6K]	3.06
WTMQAMERNFWDPSPQLDTQQEIK [Y6M]	3.17
WTMQACERNFWDPSPQLDTQQEIK [Y6C]	2.87
WTMQAPERNFWDPSPQLDTQQEIK [Y6P]	2.95

Source: the supplement of paper PMC10567573
